The experiment concerns the target FZDs (endogenous Frizzled receptors of the cells used: HEK293T cells; CSPG4 KO HeLa cells). Briefly: cell-based or functional assay.

Toxicity on CSPG4 KO HeLa cells, cell-rounding assay (CR50), against WT TcdB data for 1 substance are collected here from patent US20200339636A1.

On to “TcdB^GFE (full length TcdB with 1595VNFLQS replaced by GFE) (from UniProt P18177 1-2366)”, for which the toxicity on CSPG4 KO HeLa cells, cell-rounding assay (CR50), against WT TcdB stood at 190 fold.
